The values below come from the Human Domainome abundance scans (Beltran et al. 2025).

± gives the uncertainty stated by the source.

B1: Far upstream element-binding protein 3, residues 75 to 150; numbered along this chain, Q96I24 (parent)
chain: RTVITEEFKVPDKMVGFIIGRGGEQISRIQAESGCKIQIASESSGIPERPCVLTGTPESIEQAKRLLGQIVDRCRN

In this series the parent is B1. As to the kind of experiment: abundance fitness (aPCA) (normalised: wild type 0, dead -1); higher = more abundant; growth selection in yeast, the domain comes from the species named. The note with it: Homo sapiens.
Consider RTVITEEFKVPDKMVGFIIGRGGEQISRIQAESGCKIQIASESSGIPERPCVLTGAPESIEQAKRLLGQIVDRCRN [T56A], for which the abundance fitness was -0.086 ± 0.032.

As for RTVITEEFKVPDKMVGFIIGRGGEQISRIQAESGCKIQIASESSGIPERPCVLTGHPESIEQAKRLLGQIVDRCRN [T56H], the abundance fitness was -0.106 ± 0.051. With RTVITEEFKVPDKMVGFIIGRGGEQISRIQAESGCKIQIASESSGIPERPCVLTGCPESIEQAKRLLGQIVDRCRN [T56C] the figure was -0.097 ± 0.04; with RTVITEEFKVPDKMVGFIIGRGGEQISRIQAESGCKIQIASESSGIPERPCVLTGLPESIEQAKRLLGQIVDRCRN [T56L], -0.138 ± 0.031; with RTVITEEFKVPDKMVGFIIGRGGEQISRIQAESGCKIQIASESSGIPERPCVLTGPPESIEQAKRLLGQIVDRCRN [T56P], -0.094 ± 0.036. For RTVITEEFKVPDKMVGFIIGRGGEQISRIQAESGCKIQIASESSGIPERPCVLTGKPESIEQAKRLLGQIVDRCRN [T56K], the abundance fitness was -0.166 ± 0.04.

Consider RTVITEEFKVPDKMVGFIIGRGGEQISRIQAESGCKIQIASESSGIPERPCVLTGEPESIEQAKRLLGQIVDRCRN [T56E], for which the abundance fitness was -0.08 ± 0.032.

On to RTVITEEFKVPDKMVGFIIGRGGEQISRIQAESGCKIQIASESSGIPERPCVLTGMPESIEQAKRLLGQIVDRCRN [T56M], for which the abundance fitness was -0.183 ± 0.038. With RTVITEEFKVPDKMVGFIIGRGGEQISRIQAESGCKIQIASESSGIPERPCVLTGIPESIEQAKRLLGQIVDRCRN [T56I] the figure was -0.225 ± 0.059; with RTVITEEFKVPDKMVGFIIGRGGEQISRIQAESGCKIQIASESSGIPERPCVLTGRPESIEQAKRLLGQIVDRCRN [T56R], -0.107 ± 0.027; with RTVITEEFKVPDKMVGFIIGRGGEQISRIQAESGCKIQIASESSGIPERPCVLTGYPESIEQAKRLLGQIVDRCRN [T56Y], -0.049 ± 0.05. For the variant RTVITEEFKVPDKMVGFIIGRGGEQISRIQAESGCKIQIASESSGIPERPCVLTGWPESIEQAKRLLGQIVDRCRN [T56W], the abundance fitness is -0.332 ± 0.033. With RTVITEEFKVPDKMVGFIIGRGGEQISRIQAESGCKIQIASESSGIPERPCVLTGNPESIEQAKRLLGQIVDRCRN [T56N] the figure was -0.105 ± 0.055; with RTVITEEFKVPDKMVGFIIGRGGEQISRIQAESGCKIQIASESSGIPERPCVLTGGPESIEQAKRLLGQIVDRCRN [T56G], -0.232 ± 0.025; with RTVITEEFKVPDKMVGFIIGRGGEQISRIQAESGCKIQIASESSGIPERPCVLTGQPESIEQAKRLLGQIVDRCRN [T56Q], -0.127 ± 0.037. With RTVITEEFKVPDKMVGFIIGRGGEQISRIQAESGCKIQIASESSGIPERPCVLTGSPESIEQAKRLLGQIVDRCRN [T56S] the figure was -0.013 ± 0.031. With RTVITEEFKVPDKMVGFIIGRGGEQISRIQAESGCKIQIASESSGIPERPCVLTGTMESIEQAKRLLGQIVDRCRN [P57M] the figure was -0.111 ± 0.057.

With RTVITEEFKVPDKMVGFIIGRGGEQISRIQAESGCKIQIASESSGIPERPCVLTGTCESIEQAKRLLGQIVDRCRN [P57C], the abundance fitness was -0.143 ± 0.054. The value for RTVITEEFKVPDKMVGFIIGRGGEQISRIQAESGCKIQIASESSGIPERPCVLTGTHESIEQAKRLLGQIVDRCRN [P57H] was -0.096 ± 0.08.

As to RTVITEEFKVPDKMVGFIIGRGGEQISRIQAESGCKIQIASESSGIPERPCVLTGTAESIEQAKRLLGQIVDRCRN [P57A], the abundance fitness is -0.013 ± 0.038. The value for RTVITEEFKVPDKMVGFIIGRGGEQISRIQAESGCKIQIASESSGIPERPCVLTGTDESIEQAKRLLGQIVDRCRN [P57D] was -0.182 ± 0.055; that for RTVITEEFKVPDKMVGFIIGRGGEQISRIQAESGCKIQIASESSGIPERPCVLTGTNESIEQAKRLLGQIVDRCRN [P57N] was -0.1 ± 0.082; that for RTVITEEFKVPDKMVGFIIGRGGEQISRIQAESGCKIQIASESSGIPERPCVLTGTSESIEQAKRLLGQIVDRCRN [P57S] was -0.109 ± 0.042. The value for RTVITEEFKVPDKMVGFIIGRGGEQISRIQAESGCKIQIASESSGIPERPCVLTGTKESIEQAKRLLGQIVDRCRN [P57K] was -0.009 ± 0.056; that for RTVITEEFKVPDKMVGFIIGRGGEQISRIQAESGCKIQIASESSGIPERPCVLTGTGESIEQAKRLLGQIVDRCRN [P57G] was -0.113 ± 0.032; that for RTVITEEFKVPDKMVGFIIGRGGEQISRIQAESGCKIQIASESSGIPERPCVLTGTIESIEQAKRLLGQIVDRCRN [P57I] was -0.131 ± 0.1. With RTVITEEFKVPDKMVGFIIGRGGEQISRIQAESGCKIQIASESSGIPERPCVLTGTFESIEQAKRLLGQIVDRCRN [P57F] the figure was -0.103 ± 0.081; with RTVITEEFKVPDKMVGFIIGRGGEQISRIQAESGCKIQIASESSGIPERPCVLTGTQESIEQAKRLLGQIVDRCRN [P57Q], -0.023 ± 0.049. In the case of RTVITEEFKVPDKMVGFIIGRGGEQISRIQAESGCKIQIASESSGIPERPCVLTGTLESIEQAKRLLGQIVDRCRN [P57L], the abundance fitness is -0.112 ± 0.04. With RTVITEEFKVPDKMVGFIIGRGGEQISRIQAESGCKIQIASESSGIPERPCVLTGTRESIEQAKRLLGQIVDRCRN [P57R] the figure was -0.013 ± 0.031; with RTVITEEFKVPDKMVGFIIGRGGEQISRIQAESGCKIQIASESSGIPERPCVLTGTEESIEQAKRLLGQIVDRCRN [P57E], -0.045 ± 0.045. With RTVITEEFKVPDKMVGFIIGRGGEQISRIQAESGCKIQIASESSGIPERPCVLTDTPESIEQAKRLLGQIVDRCRN [G55D] the figure was -0.905 ± 0.077; with RTVITEEFKVPDKMVGFIIGRGGEQISRIQAESGCKIQIASESSGIPERPCVLTWTPESIEQAKRLLGQIVDRCRN [G55W], -1.34 ± 0.076; with RTVITEEFKVPDKMVGFIIGRGGEQISRIQAESGCKIQIASESSGIPERPCVLTRTPESIEQAKRLLGQIVDRCRN [G55R], -1.07 ± 0.041. With RTVITEEFKVPDKMVGFIIGRGGEQISRIQAESGCKIQIASESSGIPERPCVLTTTPESIEQAKRLLGQIVDRCRN [G55T] the figure was -1.09 ± 0.078; with RTVITEEFKVPDKMVGFIIGRGGEQISRIQAESGCKIQIASESSGIPERPCVLTITPESIEQAKRLLGQIVDRCRN [G55I], -1.12 ± 0.2.
